Molar ratio of subunit to PABP in the purified subunit (western blot) and molar ratio of PABP to the ribosome (40S + 60S subunits) (western blot) data for one substance are collected here from PMC6261967.

The target in assay [1] is 40S ribosomal subunit (human (endogenous in HeLa)) (UniProt P62753). In words: co-sedimentation; ribosome fractions from HeLa cells, first and second 10-40% sucrose gradient, 20 mM Tris-HCl pH 7.5, 500 mM KCl, 4 mM magnesium acetate, 2 mM DTT, 4 °C; fractions and the purified subunits blotted for PABP, without GST-Paip2 treatment.
The target in assay [2] is 60S ribosomal subunit (human (endogenous in HeLa)) (UniProt P40429). Described as above.
Assay [3] addresses the ribosome (40S + 60S subunits) (human (endogenous in HeLa)) (UniProt P62753). In words: co-sedimentation; puromycin-treated crude ribosomal preparation resolved by sucrose-gradient centrifugation; ribosome fractions combined for western blot (Supplementary Fig. S1).

Turning to “poly(A)-binding protein (PABP), endogenous in HeLa ribosome preparations (from UniProt P11940 1-636) (natural protein)”, the molar ratio of subunit to PABP in the purified subunit (western blot) in assay [1] and in assay [2] was 10 each time. In addition, in assay [3], the molar ratio of PABP to the ribosome (40S + 60S subunits) (western blot) was 2.
